Assay results from patent publication US5852187A, “Molecular cloning of the ovine pituitary growth hormone releasing hormone receptor” (priority 1996, dated 1998).
Several values for one entry are separate records, joined by “and”; a condition that tells them apart may be missing. Equal entries are not always repeated. Entries after “also recorded” stand apart in the source; their conditions may differ. Where two headings read alike, the source gives them in different places. Where no end group is shown, it is not given here. [ ]: non-standard residue; d: D form. The star is where a group is joined. Nle = CCCC[C@H](N)C(=O)O; 125I = [125I]*

Legend:
[1] = target: T1, GHRH-R encoded by HAP 7 cDNA (Homo sapiens, UniProt Q02643); test: Iodinated GHRH binding to COS cell membranes transfected with pCDM8 containing HAP 7 cDNA; conditions: for effect on binding of iodinated GHRH: 100 nM peptide, HAP transfected COS cells or membranes
T1 construct: expressed in transfected cells; host or cells: Cos-1 cells (membranes), pCDM8 vector
T1 sequence (Q02643 23-423): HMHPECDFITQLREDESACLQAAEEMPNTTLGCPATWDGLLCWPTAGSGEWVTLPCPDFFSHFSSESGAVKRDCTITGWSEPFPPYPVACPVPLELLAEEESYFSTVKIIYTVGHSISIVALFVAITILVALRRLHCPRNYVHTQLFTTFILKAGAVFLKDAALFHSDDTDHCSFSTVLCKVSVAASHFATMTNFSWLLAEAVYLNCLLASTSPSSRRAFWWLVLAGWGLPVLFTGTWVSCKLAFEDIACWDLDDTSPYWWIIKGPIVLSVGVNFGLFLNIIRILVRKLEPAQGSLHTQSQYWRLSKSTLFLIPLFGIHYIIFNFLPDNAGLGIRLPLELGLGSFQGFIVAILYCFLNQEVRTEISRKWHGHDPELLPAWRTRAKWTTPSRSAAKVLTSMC

GHRH receptor (GHRH-R) = test: 125I-GHRHa binding assay in crude anterior pituitary membrane pellets; design: species or system ovine; conditions: for competition for the 125I-GHRHa binding site: 100 nM competing peptide; for displacement of GHRH in ovine pituitary: at 500 nM
Method: Specific binding is defined as the difference in the binding seen with 20 pM iodinated analog alone and binding of the analog in the presence of 10 nM non-iodinated GHRHa.
All steps were performed at 4° C. Frozen ovine or bovine anterior pituitaries (ovine: approximately 1 gm/pituitary obtained from Dr. Ian Clarke, Melbourne, Australia; bovine: approximately 2.5 gm/pituitary special handling from Pel-Freez, of Rogers, Ark.) were washed of blood, cleaned of connective tissue and homogenized (using a Dounce homogenizer) in 50 mM HEPES buffer, 100 mM NaCl, 10 mM EDTA, 0.1 μM EGTA, pH 7.4 with 0.5 mM PMSF (phenyl methyl sulfonyl fluoride), 10 μg/ml leupeptin, 10 μg/ml pepstatin A, and 200 U/ml (units/ml) aprotinin. This buffer is used to remove endogenous GTP which might be bound to G proteins and to restore high affinity binding. The homogenate was spun at top speed in a microfuge and the supernatant discarded. The upper (membrane) layer of the pellet was then gently resuspended in binding buffer containing 50 mM Tris buffer, 5 mM EGTA, 5 mM MgCl2, 50 μg/ml alamethicin, 30 μg/ml bacitracin and other protease inhibitors as above.
1/50 pituitary equivalent per tube was incubated in binding buffer with approximately 100,000 counts of iodinated probe in a volume of 500 μl at room temperature for 1 hour. The total counts delivered and the percent of counts bound for each tube was determined with 3 to 6 replicates per experimental condition. Saturation binding profiles were analyzed with the computer program Ligand which performs a statistically weighted least squares fit to the exact ligand binding equation in nontransformed coordinates.

[2] = target: T2, secretin and VIP receptors (Homo sapiens, UniProt P47872); conditions: at 10 μM; cited from earlier work
T2 construct: host or cells: human pancreas tissue

[3] = target: human GHRH receptor encoded by HAP 7.3 cDNA (human); test: competition with iodinated GHRH analog, membranes of COS cells transfected with HAP 7 (FIG. 16)
GHRH-R (55 kDa band) = test: Photoaffinity cross-linking / photoprobe binding in pituitary membrane pellets (gamma counting, SDS-PAGE autoradiography); design: species or system ovine
Method: Photoprobe binding in ovine pituitary membrane pellets was determined by γ-counting and UV induced cross-linking was examined by autoradiography of sodium dodecylsulfate polyacrylamide electrophoresis (SDS-PAGE) gels. ^125 I-GHRHa -ANB-NOS probe bound with an affinity of about one nanomole, nM (compared to about 160 picomole, pM, for GHRHa).
Photoprobe binding to membranes was evaluated with crude membrane binding assay and then analyzed further by SDS-PAGE electrophoresis to identify the binding sites. Photoprobes were incubated in the dark, photolysed for 10 minutes with a long wave (366 nm) UV lamp, and then the samples were pelleted. The pellets were counted and then extracted by boiling directly in SDS sample buffer (total SDS extracts). Alternatively, the labeled pellets were extracted in a mild detergent solution (5 mM CHAPS) centrifuged, and the chloroform/methanol concentrated supernatants denatured with SDS buffer (CHAPS extracts). These samples were then electrophoresed in SDS gels and autoradiographed.

[4] = target: bovine pituitary GHRH receptor (bovine) (UniProt Q9TUJ0); test: displacement of GHRH and its analogs, bovine anterior pituitary tissue
[5] = target: ovine pituitary growth hormone releasing hormone receptor (ovine); test: displacement of GHRH and its analogs, ovine anterior pituitary tissue
[6] = target: ovine pituitary growth hormone releasing hormone receptor (ovine); test: saturation binding analysed with the program Ligand, crude pituitary membrane pellets (FIG. 2)
[7] = target: ovine pituitary growth hormone releasing hormone receptor (ovine); test: binding and displacement of iodinated GHRH analog, ovine pituitary membranes (FIG. 17)
[8] = target: ovine pituitary growth hormone releasing hormone receptor (ovine); test: saturation binding analysed with the program Ligand, crude pituitary membrane pellets
[9] = target: pituitary GHRH receptor (ovine or bovine, not said which at the place); test: charcoal-dextran binding assay on pituitary membrane preparations solubilized in CHAPS without prebound ligand; the ligand is not named
[10] = target: ovine pituitary growth hormone releasing hormone receptor (ovine); test: saturation binding with increasing unlabeled GHRHa, crude pituitary membrane pellets (FIG. 2)
[11] = target: dibiotinylated GHRHa (human) (UniProt P01286); test: binding of iodinated biotinylated GHRHa forms to immobilized streptavidin, through the biotin group
[12] = target: monobiotinylated GHRHa (human) (UniProt P01286); test: as above

T2 sequence (P47872 23-440): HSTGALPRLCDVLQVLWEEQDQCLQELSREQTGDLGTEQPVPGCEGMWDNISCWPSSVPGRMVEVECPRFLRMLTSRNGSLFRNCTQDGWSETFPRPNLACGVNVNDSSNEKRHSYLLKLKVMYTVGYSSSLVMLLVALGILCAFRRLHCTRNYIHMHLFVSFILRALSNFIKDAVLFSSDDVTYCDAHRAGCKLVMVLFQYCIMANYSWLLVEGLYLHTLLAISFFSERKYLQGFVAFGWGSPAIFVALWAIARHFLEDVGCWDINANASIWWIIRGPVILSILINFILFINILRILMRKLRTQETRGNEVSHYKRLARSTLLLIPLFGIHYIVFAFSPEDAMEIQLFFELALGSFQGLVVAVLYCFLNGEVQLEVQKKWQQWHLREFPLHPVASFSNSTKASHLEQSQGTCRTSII

## calcitonin
[1]
  effect on binding of iodinated GHRH: unaffected

## GHRH: growth hormone releasing hormone; the competitor in FIG. 17 is GHRHa
GHRH receptor (GHRH-R); ovine pituitary membranes, displacement data of FIG. 17, read-out: KD for GHRH binding in pituitary
  Kd: 0.2 nM

## ^125 I-GHRHa: radioiodinated GHRHa probe, monoiodinated and HPLC purified (YADAIFTNSY(125I)RKVLGQLSARKLLQDI[Nle]SRQQG-NH2)
GHRH receptor (GHRH-R)
  comparison with commercially available iodinated human GHRH: slightly better specific binding

## GHRH(1-29)-NH2
[2]
  inhibition of 125I-secretin binding: 20%

## PACAP (pituitary adenylate cyclase activating peptide)
[3]
  Ki: 30 nM

## secretin
[1]
  effect on binding of iodinated GHRH: unaffected

## Nc1nc2c(ncn2[C@@H]2O[C@H](COP(=O)(O)OP(=O)(O)OP(O)(O)=S)[C@@H](O)[C@H]2O)c(=O)[nH]1 [GTPγS]
GHRH-R (55 kDa band); 50 μM GTPγS
  displacement of both photoprobes from membrane pellets: partially displaced

## vasoactive intestinal peptide [VIP]
GHRH-R (55 kDa band); 100 nM VIP
  effect on photo-cross-linked 55 kDa band: unaffected
[1]
  effect on binding of iodinated GHRH: unaffected; also recorded: no effect
[2]
  inhibition of 125I-secretin binding: 20%
GHRH receptor (GHRH-R)
  competition for the 125I-GHRHa binding site: no competition; also recorded: did not compete
  displacement of GHRH in ovine pituitary: not

## [His1, Nle27]-GHRH-(1-32)-NH2 (from UniProt P01286) (peptide)
[4]
  fold lower displacing concentration than VIP or PACAP: 500 fold and 1000 fold
[5]
  fold lower displacing concentration than VIP or PACAP: 500 fold and 1000 fold
[6]
  Kd: 0.15 nM
[7]
  Kd: 0.2 nM
[8]
  Kd: 0.158 nM
[9]
  Kd: 500 nM
[10]
  Kd: 0.16 nM

## CC[C@H](C)[C@H](NC(=O)CNC(=O)[C@H](CC(=O)O)NC(=O)[C@H](CO)NC(=O)[C@@H](N)Cc1c[nH]cn1)C(=O)N[C@@H](Cc1ccccc1)C(=O)N[C@H](C(=O)N[C@@H](CC(=O)O)C(=O)N[C@@H](CO)C(=O)N[C@@H](Cc1ccc(O)cc1)C(=O)N[C@@H](CO)C(=O)N[C@@H](CCCNC(=N)N)C(=O)N[C@@H](Cc1ccc(O)cc1)C(=O)N[C@@H](CCCNC(=N)N)C(=O)N[C@@H](CCCCN)C(=O)N[C@@H](CCC(N)=O)C(=O)N[C@@H](CCSC)C(=O)N[C@@H](C)C(=O)N[C@H](C(=O)N[C@@H](CCCCN)C(=O)N[C@@H](CCCCN)C(=O)N[C@@H](Cc1ccc(O)cc1)C(=O)N[C@@H](CC(C)C)C(=O)N[C@@H](C)C(=O)N[C@@H](C)C(=O)N[C@H](C(=O)N[C@@H](CC(C)C)C(=O)NCC(=O)N[C@@H](CCCCN)C(=O)N[C@@H](CCCNC(=N)N)C(=O)N[C@@H](Cc1ccc(O)cc1)C(=O)N[C@@H](CCCCN)C(=O)N[C@@H](CCC(N)=O)C(=O)N[C@@H](CCCNC(=N)N)C(=O)N[C@H](C(=O)N[C@@H](CCCCN)C(=O)N[C@@H](CC(N)=O)C(=O)N[C@@H](CCCCN)C(N)=O)C(C)C)C(C)C)C(C)C)[C@@H](C)O [PACAP, pituitary adenylate cyclase activating peptide]
GHRH receptor (GHRH-R)
  competition for the 125I-GHRHa binding site: no competition; also recorded: did not compete
  displacement of GHRH in ovine pituitary: significant displacement

## C[C@H](N)C(=O)NCC(=O)N[C@H]1CSSC[C@@H](C(=O)O)NC(=O)[C@H](CO)NC(=O)[C@H]([C@@H](C)O)NC(=O)[C@H](Cc2ccccc2)NC(=O)[C@H]([C@@H](C)O)NC(=O)[C@H](CCCCN)NC(=O)[C@H](Cc2c[nH]c3ccccc23)NC(=O)[C@H](Cc2ccccc2)NC(=O)[C@H](Cc2ccccc2)NC(=O)[C@H](CC(N)=O)NC(=O)[C@H](CCCCN)NC1=O [somatostatin]
[1]
  effect on binding of iodinated GHRH: unaffected

## parathyroid hormone
[1]
  effect on binding of iodinated GHRH: unaffected

## His^1, ^125 I-Tyr^10,Nle^27 human GHRH(1-29)NH2
[1]; not seen in angiotensin receptor cDNA transfected COS cells
  binding of radioligand to HAP cDNA transfected COS cell membranes: specific, high-affinity binding

## PHM: competing peptide of the VIP family (HADGVFTSDFSKLLGQLSAKKYLESLM; ends and bridges not checked; UniProt P01282 81-107, looked up)
[1]
  effect on binding of iodinated GHRH: unaffected

## O[C@H](CS)[C@H](O)CS (racemic) [dithiothreitol]
GHRH receptor (GHRH-R); preincubation with 1 mM
  effect on specific binding in the GHRH assay: completely eliminated

## immobilized streptavidin (from UniProt P22629) (tool reagent)
[11]
  percent of product bound: > 90%
[12]
  percent of product bound: > 90%

## monobiotinylated GHRHa: GHRHa biotinylated at lysine 12 or 21 with NHS-LC-Biotin, mono form resolved on HPLC (YADAIFTNSY(iodo)RKVLGQLSARKLLQDI[Nle]SRQQG-NH2; also: NHS-LC-Biotin on one of lysines 12 and 21)
GHRH receptor (GHRH-R)
  receptor binding affinity compared to GHRHa: two-fold reduced

## ^125 I-GHRHa -ANB-NOS: GHRHa coupled to N-5-azido-2-nitrobenzoyloxysuccinimide at lysine 12 or 21, then iodinated; photoprobe (YADAIFTNSY(125I)RKVLGQLSARKLLQDI[Nle]SRQQG-NH2; also: N-5-azido-2-nitrobenzoyl (ANB-NOS) on lysine 12 or 21)
GHRH-R (55 kDa band); ovine pituitary membrane pellets, gamma-counting
  affinity of photoprobe binding: about one

## [His 1, Nle27, Biotin-Lys4 1 ]-GHRH-(1-41)-NH2 [GHRHb]
GHRH receptor (GHRH-R)
  receptor binding affinity compared to GHRHa: comparable to GHRHa

## [His^1, Nle^27 ]-GHRH-(1-32)-NH2 [GHRHa]
GHRH-R (55 kDa band); 10 nM GHRHa
  displacement of both photoprobes from membrane pellets: totally displaced
GHRH-R (55 kDa band); 10 nM GHRHa, 125I-GHRHa-ANB-NOS probe
  effect on photo-cross-linked 55 kDa band: completely eliminated
GHRH receptor (GHRH-R); crude ovine pituitary membranes, program Ligand, read-out: Kd, saturation binding to a single high affinity site
  Kd: 0.158 nM and ~0.16 nM
